Data published in IntAct's records for PubMed 22187461.

B1: 26S proteasome non-ATPase regulatory subunit 11 (Drosophila melanogaster (Fruit fly)), Q7KLV9-1 (parent)
chain: MAGATLFERAQALSSVNREEQDSSLLNKLVRDQEGAENDEERIRIKEQGILQQGELYKQEGKAKELADLIKVTRPFLSSISKAKAAKLVRSLVDMFLDMDAGTGIEVQLCKDCIEWAKQEKRTFLRQSLEARLIALYFDTALYTEALALGAQLLRELKKLDDKNLLVEVQLLESKTYHALSNLPKARAALTSARTTANAIYCPPKVQGALDLQSGILHAADERDFKTAFSYFYEAFEGFDSVDSVKALTSLKYMLLCKIMLGQSDDVNQLVSGKLAITYSGRDIDAMKSVAEASHKRSLADFQAALKEYKKELAEDVIVQAHLGTLYDTMLEQNLCRIIEPYSRVQVAHVAESIQLPMPQVEKKLSQMILDKKFSGILDQGEGVLIVFEETPVDKTYERVLETIQSMGKVVDTLYQKAKKLS
partner: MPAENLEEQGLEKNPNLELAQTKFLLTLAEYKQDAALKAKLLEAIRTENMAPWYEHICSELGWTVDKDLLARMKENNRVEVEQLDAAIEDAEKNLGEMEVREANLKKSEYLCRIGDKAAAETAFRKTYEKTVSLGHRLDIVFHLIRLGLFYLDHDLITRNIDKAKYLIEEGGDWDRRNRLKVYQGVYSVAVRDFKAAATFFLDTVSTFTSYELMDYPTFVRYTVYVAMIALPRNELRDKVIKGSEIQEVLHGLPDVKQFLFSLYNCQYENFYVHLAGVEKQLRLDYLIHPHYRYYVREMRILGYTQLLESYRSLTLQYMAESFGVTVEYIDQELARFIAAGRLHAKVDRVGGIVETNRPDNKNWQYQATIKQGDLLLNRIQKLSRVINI

Variants of: B1
Settings: with psmd6_drome Rpn7, Q9V3G7

| Variant | effect of a mutation on the interaction |
| --- | --- |
| MAGATLFERAQALSSVNREEQDSSLLNKLVRDQEGAENDEERIRIKEQGILQQGELYKQEGKAKELADLIKVTRPFLSSISKAKAAKLVRSLVDMFLDMDAGTGIEVQLCKDCIEWAKQEKRTFLRQSLEARLIALYFDTALYTEALALGAQLLRELKKLDDKNLLVEVQLLESKTYHALSNLPKARAALTSARTTANAIYCPPKVQGALDLQSGILHAADERDFKTAFSYFYEAFEGFDSVDSVKALTSLKYMLLCKIMLGQSDDVNQLVSGKLAITYSGRDIDAMKSVAEASHKRSLADFQAALKEYKKELAEDVIVQAHLGTLYDTMLEQNLCRIIEPYSRVQVAHVAESIQLPMPQVEKKLKQMAADKKFSGILDQGEGVLIVFEETPVDKTYERVLETIQSMGKVVDTLYQKAKKLS [S366K;I369A;L370A] | disrupting interaction strength |
